For one series, the target named is SerRS delta T413-V420 (Homo sapiens, UniProt P49591 1-514, del413-420). Put plainly: EMSA; binding abolished; EMSA: 20 mM Tris-HCl pH 8.0, 60 mM KCl, 5 mM MgCl2, 0.1 mg/ml BSA, 10 ng/ul poly(dG-dC), 1 mM DTT, 30 min, room temperature; SPR: 10 mM HEPES pH 7.4, 150 mM NaCl, 0.005% P-20; footprint: 20 mM HEPES pH 7.9, 120 mM KCl, 8 mM MgCl2, 0.2 mM EDTA, 0.5 mM DTT, 0.2 mg/ml BSA, 10 ug/ml poly(dG-dC), 5% glycerol, room temperature. The conditions noted are these: protein: recombinant; chain copies: 2; label: 5' 32P. For orientation: In EMSA bound probe runs differently from free probe, usually more slowly.

The target of the next series is SerRS delta V2-G14 (Homo sapiens, UniProt P49591 1-514, del2-14). Described as above. The conditions noted are these: protein: recombinant; chain copies: 2; label: 5' 32P.
Chain of SerRS delta V2-G14 (P49591 other isoform, or with tags, fused parts or gaps del2-14 | mutant): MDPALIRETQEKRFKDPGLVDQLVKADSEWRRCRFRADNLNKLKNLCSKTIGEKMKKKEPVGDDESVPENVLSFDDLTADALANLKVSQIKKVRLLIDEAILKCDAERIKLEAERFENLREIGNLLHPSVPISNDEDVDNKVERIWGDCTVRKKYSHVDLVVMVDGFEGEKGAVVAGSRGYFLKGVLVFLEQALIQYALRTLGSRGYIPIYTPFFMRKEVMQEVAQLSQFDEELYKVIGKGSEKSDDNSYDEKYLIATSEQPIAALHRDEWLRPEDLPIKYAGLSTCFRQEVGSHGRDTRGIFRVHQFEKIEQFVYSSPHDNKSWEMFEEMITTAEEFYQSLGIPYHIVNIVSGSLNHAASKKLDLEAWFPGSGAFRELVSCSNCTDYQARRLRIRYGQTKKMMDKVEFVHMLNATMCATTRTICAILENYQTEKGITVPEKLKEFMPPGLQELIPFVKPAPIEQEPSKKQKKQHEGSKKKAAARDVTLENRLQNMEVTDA

Chain of SerRS delta T413-V420 (P49591 other isoform, or with tags, fused parts or gaps del413-420 | mutant): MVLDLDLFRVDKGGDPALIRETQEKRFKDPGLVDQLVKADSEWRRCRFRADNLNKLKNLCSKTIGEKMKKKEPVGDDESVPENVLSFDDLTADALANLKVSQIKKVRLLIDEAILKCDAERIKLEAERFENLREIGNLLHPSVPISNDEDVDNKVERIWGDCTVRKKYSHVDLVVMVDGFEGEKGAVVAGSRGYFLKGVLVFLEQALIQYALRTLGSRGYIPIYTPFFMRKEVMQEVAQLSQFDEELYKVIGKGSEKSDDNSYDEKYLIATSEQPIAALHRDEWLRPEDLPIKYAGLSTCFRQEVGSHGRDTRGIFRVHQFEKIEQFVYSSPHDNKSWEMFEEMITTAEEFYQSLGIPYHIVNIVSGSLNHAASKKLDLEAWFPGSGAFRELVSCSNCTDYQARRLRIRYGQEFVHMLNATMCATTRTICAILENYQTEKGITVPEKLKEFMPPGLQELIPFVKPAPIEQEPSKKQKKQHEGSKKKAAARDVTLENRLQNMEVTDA

B1: VEGFA promoter 27-bp (-62 to -36) (dsDNA)
DNA 1: GGCGGGGCGGAGCCATGCGCCCCCCCC
DNA 2: GGGGGGGGCGCATGGCTCCGCCCCGCC
For B1, the binding result with SerRS delta T413-V420 and with SerRS delta V2-G14 was “no binding” in each case.
